Laboratory results: article PMC5304152
Where “and” joins values, the source holds several entries; their conditions need not be identical. Equal entries are not always repeated.

Biological target: barfin plaice type I antifreeze protein, 40-residue major isoform (bpAFP) (barfin plaice (Liposetta pinnifasciata))
Experiment: AUC; sedimentation velocity, 40,000 rpm, 4 °C, 2.5 mg bpAFP in 0.5 mL (5 mg/mL) 10 mM sodium phosphate pH 7.9, absorbance optics; monomer to tetramer (and octamer)

percent of loaded protein sedimenting as tetramer: 2.7%
stoichiometry N: 4 and 8
Substance: barfin plaice type I antifreeze protein, 40-residue major isoform (bpAFP) (peptide)
